Test results reported in article PMC2739207 (BMC Structural Biology, 2009).

T1: 40 kDa C-terminal fragment of the lysosomal 66.3 kDa protein from mouse (C249-D594) (mouse, UniProt Q3TCN2 249-594, N-glycans at N441 and N520; C249 partially oxidized, modeled as cysteine sulfonic acid (OCS))
T1 construct: lysosomal 66.3 kDa protein, mouse; C-terminal proteolytic fragment beginning at C249; ordered in 3FGR and 3FGT: C249-P592; W593, D594 and the eleven tag residues are disordered; Made by cleavage of the 66.3 kDa proprotein between S248 and C249; also called 40 kDa fragment; chain B; source: gel filtration only for the batch of 3FGR
T1 sequence (looked up): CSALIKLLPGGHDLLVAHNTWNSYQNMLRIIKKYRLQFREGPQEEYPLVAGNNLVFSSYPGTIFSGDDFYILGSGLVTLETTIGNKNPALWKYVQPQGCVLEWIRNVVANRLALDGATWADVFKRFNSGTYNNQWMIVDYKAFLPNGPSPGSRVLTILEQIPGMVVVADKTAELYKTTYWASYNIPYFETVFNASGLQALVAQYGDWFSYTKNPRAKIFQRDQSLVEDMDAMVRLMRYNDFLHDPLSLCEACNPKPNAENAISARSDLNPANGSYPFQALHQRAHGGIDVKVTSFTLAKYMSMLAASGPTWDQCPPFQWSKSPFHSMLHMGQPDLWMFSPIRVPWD


How the values were obtained:
[1] = biological target: T1, 40 kDa C-terminal fragment of the …; assay: crystal structure; crystals grown under acidic conditions (PEG 4000, NaAc/HAc pH 4.6, NH4Ac); crystal form I, space group C2, one molecule in the asymmetric unit; 3FGR at 1.8 Å, 3FGT at 2.4 Å; details: both partners purified
[2] = biological target: the molecule itself; assay: SEC; gel filtration column during protein purification, after affinity and anion exchange columns; single 280 nm absorption peak; conditions as in ref. 17

| binding result [1] | Binder | stoichiometry N [2] |
| --- | --- | --- |
| binds | 28 kDa N-terminal fragment of the lysosomal 66.3 kDa protein from mouse (L47-S248) (domain or fragment, UniProt Q3TCN2 47-248, looked up, N-glycans at N93, N115 and N236, lysosomal 66.3 kDa protein, mouse; N-terminal proteolytic fragment after cleavage between S248 and C249; residues L47-S248 by mass spectrometry; ordered in 3FGR: V63-T238 and G245-S248; Made by cleavage of the 66.3 kDa proprotein; it never stood apart from the 40 kDa fragment; The protein batch also holds the shorter form L47-S246 and the uncleaved protein; also called 28 kDa fragment; …) LPTLGPGWQRQNPDPPVSRTRSLLLDAASGQLRLEDGFHPDAVAWANLTNAIRETGWAYLDLSTNGRYNDSLQAYAAGVVEASVSEELIYMHWMNTVVNYCGPFEYEVGYCEKLKNFLEANLEWMQREMELNPDSPYWHQVRLTLLQLKGLEDSYEGRLTFPTGRFTIKPLGFLLLQISGDLEDLEPALNKTNTKPSLGSGS | – |
| – | lysosomal 66.3 kDa protein from mouse (natural protein, UniProt Q3TCN2 47-594, looked up, N-glycans at N93, N115, N236, N441 and N520; mannose 6-phosphate containing, lysosomal 66.3 kDa protein, mouse; proprotein after removal of the signal peptide, L47-D594; ordered in 3FGW: P61-N239 and G245-D594; The preparation on the gel filtration column was a mixture of the uncleaved chain and the cleaved form (28 kDa plus 40 kDa fragments); the dimer is told of the 66.3 kDa protein as a whole; also called uncleaved 66.3 kDa protein; uncleaved form (3FGW)) LPTLGPGWQRQNPDPPVSRTRSLLLDAASGQLRLEDGFHPDAVAWANLTNAIRETGWAYLDLSTNGRYNDSLQAYAAGVVEASVSEELIYMHWMNTVVNYCGPFEYEVGYCEKLKNFLEANLEWMQREMELNPDSPYWHQVRLTLLQLKGLEDSYEGRLTFPTGRFTIKPLGFLLLQISGDLEDLEPALNKTNTKPSLGSGSCSALIKLLPGGHDLLVAHNTWNSYQNMLRIIKKYRLQFREGPQEEYPLVAGNNLVFSSYPGTIFSGDDFYILGSGLVTLETTIGNKNPALWKYVQPQGCVLEWIRNVVANRLALDGATWADVFKRFNSGTYNNQWMIVDYKAFLPNGPSPGSRVLTILEQIPGMVVVADKTAELYKTTYWASYNIPYFETVFNASGLQALVAQYGDWFSYTKNPRAKIFQRDQSLVEDMDAMVRLMRYNDFLHDPLSLCEACNPKPNAENAISARSDLNPANGSYPFQALHQRAHGGIDVKVTSFTLAKYMSMLAASGPTWDQCPPFQWSKSPFHSMLHMGQPDLWMFSPIRVPWD | 2 |
| binds | 28 kDa N-terminal fragment of the lysosomal 66.3 kDa protein from mouse, shorter form (L47-S246) (domain or fragment, UniProt Q3TCN2 47-246, looked up, N-glycans at N115 and N236 seen in 3FGT, lysosomal 66.3 kDa protein, mouse; 28 kDa fragment truncated at the C-terminus by two residues; residues L47-S246 by mass spectrometry; ordered in 3FGT: D60-N239; residues after N239 are disordered in the structure; also called shorter version of the 28 kDa fragment; chain A of 3FGT; source: HT1080 human fibrosarcoma cells, overexpressed, purified (original protocol lacking a gel filtration)) LPTLGPGWQRQNPDPPVSRTRSLLLDAASGQLRLEDGFHPDAVAWANLTNAIRETGWAYLDLSTNGRYNDSLQAYAAGVVEASVSEELIYMHWMNTVVNYCGPFEYEVGYCEKLKNFLEANLEWMQREMELNPDSPYWHQVRLTLLQLKGLEDSYEGRLTFPTGRFTIKPLGFLLLQISGDLEDLEPALNKTNTKPSLGS | – |
